From the Human Domainome abundance scans (Beltran et al. 2025)
± gives the uncertainty stated by the source.

B1: Far upstream element-binding protein 3, residues 75 to 150; numbered along this chain, Q96I24 (parent)
chain: RTVITEEFKVPDKMVGFIIGRGGEQISRIQAESGCKIQIASESSGIPERPCVLTGTPESIEQAKRLLGQIVDRCRN
B2: Zinc finger MYM-type protein 6, residues 427 to 504; numbered along this chain, O95789 (parent)
chain: KLKCQHCNHLFATKPELLFYKGKMFLFCGKNCSDEYKKKNKVVAMCDYCKLQKIIKETVRFSGVDKPFCSEVCKFLSA

Variants of: B1
Assay: abundance fitness (aPCA) (normalised: wild type 0, dead -1); higher = more abundant; growth selection in yeast, the domain comes from the species named
Settings: Homo sapiens

| Variant | abundance fitness |
| --- | --- |
| NTVITEEFKVPDKMVGFIIGRGGEQISRIQAESGCKIQIASESSGIPERPCVLTGTPESIEQAKRLLGQIVDRCRN | 0.063 ± 0.071 |
| ATVITEEFKVPDKMVGFIIGRGGEQISRIQAESGCKIQIASESSGIPERPCVLTGTPESIEQAKRLLGQIVDRCRN | -0.077 ± 0.046 |
| CTVITEEFKVPDKMVGFIIGRGGEQISRIQAESGCKIQIASESSGIPERPCVLTGTPESIEQAKRLLGQIVDRCRN | 0.032 ± 0.059 |
| KTVITEEFKVPDKMVGFIIGRGGEQISRIQAESGCKIQIASESSGIPERPCVLTGTPESIEQAKRLLGQIVDRCRN | 0.008 ± 0.055 |
| STVITEEFKVPDKMVGFIIGRGGEQISRIQAESGCKIQIASESSGIPERPCVLTGTPESIEQAKRLLGQIVDRCRN | -0.042 ± 0.041 |
| ITVITEEFKVPDKMVGFIIGRGGEQISRIQAESGCKIQIASESSGIPERPCVLTGTPESIEQAKRLLGQIVDRCRN | -0.016 ± 0.073 |
| LTVITEEFKVPDKMVGFIIGRGGEQISRIQAESGCKIQIASESSGIPERPCVLTGTPESIEQAKRLLGQIVDRCRN | -0.079 ± 0.054 |
| ETVITEEFKVPDKMVGFIIGRGGEQISRIQAESGCKIQIASESSGIPERPCVLTGTPESIEQAKRLLGQIVDRCRN | -0.062 ± 0.049 |
| DTVITEEFKVPDKMVGFIIGRGGEQISRIQAESGCKIQIASESSGIPERPCVLTGTPESIEQAKRLLGQIVDRCRN | 0.022 ± 0.076 |
| TTVITEEFKVPDKMVGFIIGRGGEQISRIQAESGCKIQIASESSGIPERPCVLTGTPESIEQAKRLLGQIVDRCRN | 0.028 ± 0.053 |
| FTVITEEFKVPDKMVGFIIGRGGEQISRIQAESGCKIQIASESSGIPERPCVLTGTPESIEQAKRLLGQIVDRCRN | -0.059 ± 0.087 |
| GTVITEEFKVPDKMVGFIIGRGGEQISRIQAESGCKIQIASESSGIPERPCVLTGTPESIEQAKRLLGQIVDRCRN | -0.042 ± 0.027 |
| HTVITEEFKVPDKMVGFIIGRGGEQISRIQAESGCKIQIASESSGIPERPCVLTGTPESIEQAKRLLGQIVDRCRN | -0.034 ± 0.14 |
| VTVITEEFKVPDKMVGFIIGRGGEQISRIQAESGCKIQIASESSGIPERPCVLTGTPESIEQAKRLLGQIVDRCRN | -0.043 ± 0.042 |
| MTVITEEFKVPDKMVGFIIGRGGEQISRIQAESGCKIQIASESSGIPERPCVLTGTPESIEQAKRLLGQIVDRCRN | 0.029 ± 0.055 |
| PTVITEEFKVPDKMVGFIIGRGGEQISRIQAESGCKIQIASESSGIPERPCVLTGTPESIEQAKRLLGQIVDRCRN | -0.236 ± 0.1 |

Variants of: B2
Assay: as above
Settings: Homo sapiens

| Variant | abundance fitness |
| --- | --- |
| KLKCQHCNHLFATKPELLFYKGKMFLFCGKNCSDQYKKKNKVVAMCDYCKLQKIIKETVRFSGVDKPFCSEVCKFLSA | -0.082 ± 0.06 |
| KLKCQHCNHLFATKPELLFYKGKMFLFCGKNCSDCYKKKNKVVAMCDYCKLQKIIKETVRFSGVDKPFCSEVCKFLSA | -0.402 ± 0.46 |
| KLKCQHCNHLFATKPELLFYKGKMFLFCGKNCSDEYKDKNKVVAMCDYCKLQKIIKETVRFSGVDKPFCSEVCKFLSA | -0.114 ± 0.068 |
| KLKCQHCNHLFATKPELLFYKGKQFLFCGKNCSDEYKKKNKVVAMCDYCKLQKIIKETVRFSGVDKPFCSEVCKFLSA | 0.101 ± 0.039 |
| GLKCQHCNHLFATKPELLFYKGKMFLFCGKNCSDEYKKKNKVVAMCDYCKLQKIIKETVRFSGVDKPFCSEVCKFLSA | -0.229 ± 0.033 |
| KLKCQHCNHLFATKPELLFYKGKMFLFCGHNCSDEYKKKNKVVAMCDYCKLQKIIKETVRFSGVDKPFCSEVCKFLSA | -0.063 ± 0.05 |
| KLICQHCNHLFATKPELLFYKGKMFLFCGKNCSDEYKKKNKVVAMCDYCKLQKIIKETVRFSGVDKPFCSEVCKFLSA | -0.124 ± 0.068 |
| KLPCQHCNHLFATKPELLFYKGKMFLFCGKNCSDEYKKKNKVVAMCDYCKLQKIIKETVRFSGVDKPFCSEVCKFLSA | -0.071 ± 0.043 |
| KLKCQHCNHLFATKPELLFYKGKMFLFCGKNCSDEYKKKNKVVAMCDYCKLQKIIKETVRFSGVDKPFCSEVCKFLSV | -0.292 ± 0.12 |
| KLKCQHCNHLFATKPELLFYKGKMFLFCGKNCSDEYKKKNKVVAMCDYCKLQKIIKETVRFSGVDKPFCSEVCKFLSG | 0.022 ± 0.18 |
| KLKCQHCNHLFATKPELLFYKGKMFLFCGKNCSDEYKKKNKVVAMCDYCKLQKIIKETVRFSGEDKPFCSEVCKFLSA | 0.09 ± 0.1 |
| KLKCQHCNHLFATKPELLFYKGKMFLFCGKNCSDEYKKKNKVVAMCDYCKLQKIIKETVDFSGVDKPFCSEVCKFLSA | 0.342 ± 0.21 |
| KLKCQHCNHLFATKPELLFYKGKMFLFCGKNCSDEYKKKNKVVAMCDYCKLQKIIKETVWFSGVDKPFCSEVCKFLSA | -0.468 ± 0.17 |
| KLKCQHCNHLFATKIELLFYKGKMFLFCGKNCSDEYKKKNKVVAMCDYCKLQKIIKETVRFSGVDKPFCSEVCKFLSA | -0.412 ± 0.16 |
| KLKCQHCNHLFATKPELLFYKGKMFLFFGKNCSDEYKKKNKVVAMCDYCKLQKIIKETVRFSGVDKPFCSEVCKFLSA | -0.855 ± 0.25 |
| KLKCQHCNHLFATKPELLFYKGKMFLFQGKNCSDEYKKKNKVVAMCDYCKLQKIIKETVRFSGVDKPFCSEVCKFLSA | -1.28 ± 0.48 |
| KLKCQHCNHEFATKPELLFYKGKMFLFCGKNCSDEYKKKNKVVAMCDYCKLQKIIKETVRFSGVDKPFCSEVCKFLSA | 0.063 ± 0.04 |
| KLKCQHCNHLFATKPELLFYAGKMFLFCGKNCSDEYKKKNKVVAMCDYCKLQKIIKETVRFSGVDKPFCSEVCKFLSA | 0.001 ± 0.028 |
| KLKCQHCNHLFATKPELLFYKCKMFLFCGKNCSDEYKKKNKVVAMCDYCKLQKIIKETVRFSGVDKPFCSEVCKFLSA | -0.063 ± 0.082 |
